From publication PMC5286520

Key:
Settings in all cases: modification not given
[1] = target: V1aR (Homo sapiens), P37288; assay: radioligand displacement
[2] = target: T1, V1bR (Homo sapiens), P47901; assay: radioligand displacement
T1 chain: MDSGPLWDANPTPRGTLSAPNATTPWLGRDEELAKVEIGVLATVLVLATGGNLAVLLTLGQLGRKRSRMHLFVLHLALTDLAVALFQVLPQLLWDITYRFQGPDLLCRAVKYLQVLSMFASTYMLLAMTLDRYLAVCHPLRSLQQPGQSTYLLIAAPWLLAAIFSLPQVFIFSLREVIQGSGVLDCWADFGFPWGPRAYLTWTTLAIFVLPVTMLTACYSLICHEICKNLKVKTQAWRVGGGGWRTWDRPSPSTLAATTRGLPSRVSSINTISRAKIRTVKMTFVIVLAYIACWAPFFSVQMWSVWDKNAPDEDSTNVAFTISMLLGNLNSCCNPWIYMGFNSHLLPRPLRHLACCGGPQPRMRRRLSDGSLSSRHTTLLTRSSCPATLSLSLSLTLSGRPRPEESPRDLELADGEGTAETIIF

[3] = target: T2, OTR (Homo sapiens), P30559; assay: radioligand displacement
T2 chain: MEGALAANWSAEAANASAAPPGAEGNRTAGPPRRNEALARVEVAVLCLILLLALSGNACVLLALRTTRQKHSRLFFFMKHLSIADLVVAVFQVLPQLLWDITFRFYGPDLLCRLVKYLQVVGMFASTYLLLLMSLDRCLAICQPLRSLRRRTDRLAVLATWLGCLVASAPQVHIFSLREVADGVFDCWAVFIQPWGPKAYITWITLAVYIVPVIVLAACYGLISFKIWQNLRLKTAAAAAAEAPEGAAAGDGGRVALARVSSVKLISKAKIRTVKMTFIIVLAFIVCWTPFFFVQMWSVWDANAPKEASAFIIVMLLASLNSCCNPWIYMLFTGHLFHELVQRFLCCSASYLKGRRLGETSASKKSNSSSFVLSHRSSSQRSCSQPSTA

[4] = target: V2R (Homo sapiens), P30518; assay: radioligand

Sequence of V1aR (Homo sapiens), P37288 (P37288 whole entry): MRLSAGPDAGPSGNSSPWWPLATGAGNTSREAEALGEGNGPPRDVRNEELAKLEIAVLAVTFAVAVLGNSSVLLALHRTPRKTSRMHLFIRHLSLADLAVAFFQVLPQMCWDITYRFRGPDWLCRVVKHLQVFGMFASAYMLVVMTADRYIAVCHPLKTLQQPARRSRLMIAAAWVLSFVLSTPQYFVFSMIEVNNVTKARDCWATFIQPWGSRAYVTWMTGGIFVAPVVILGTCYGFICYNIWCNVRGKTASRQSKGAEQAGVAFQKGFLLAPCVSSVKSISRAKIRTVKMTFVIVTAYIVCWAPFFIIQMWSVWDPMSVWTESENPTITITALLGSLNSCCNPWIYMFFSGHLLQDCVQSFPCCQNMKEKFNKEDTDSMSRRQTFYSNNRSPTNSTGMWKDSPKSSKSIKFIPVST

CLITNCPRG [inotocin]
Ki [1]: 11 nM
Ki [2]: 12 nM
Ki [3]: 62 nM
Ki [4]: > 100000 nM
